± gives the uncertainty stated by the source.

A short description of the data set: abundance fitness (aPCA) (normalised: wild type 0, dead -1); higher = more abundant; growth selection in yeast, the domain comes from the species named. The note with it: Homo sapiens.
Turning to “Transcriptional activator Myb E150V, P10242”, the abundance fitness was -0.207 ± 0.061.
With “Transcriptional activator Myb E150W, P10242”, the abundance fitness is -0.208 ± 0.083.
For “Transcriptional activator Myb E151A, P10242”, the abundance fitness was -0.597 ± 0.066.
In turn, “Transcriptional activator Myb E151C, P10242” returned an abundance fitness of -1.1 ± 0.21.
As for “Transcriptional activator Myb E151D, P10242”, the abundance fitness was -0.348 ± 0.15.
Turning to “Transcriptional activator Myb E151F, P10242”, the abundance fitness was -0.927 ± 0.19.
With “Transcriptional activator Myb E151G, P10242” the figure was -0.815 ± 0.056.
With “Transcriptional activator Myb E151H, P10242”, the abundance fitness is -0.57 ± 0.13.
The same measure for “Transcriptional activator Myb E151I, P10242”: -0.49 ± 0.14.
On to “Transcriptional activator Myb E151L, P10242”, for which the abundance fitness was -0.482 ± 0.069.
With “Transcriptional activator Myb E151M, P10242”, the abundance fitness is -0.624 ± 0.12.
For “Transcriptional activator Myb E151N, P10242”, the abundance fitness is -0.674 ± 0.12.
The same measure for “Transcriptional activator Myb E151P, P10242”: -0.758 ± 0.15.
As for “Transcriptional activator Myb E151S, P10242”, the abundance fitness was -0.73 ± 0.088.
In turn, “Transcriptional activator Myb E151T, P10242” yielded an abundance fitness of -0.731 ± 0.12.
With “Transcriptional activator Myb E151V, P10242” the figure was -0.466 ± 0.074; with “Transcriptional activator Myb E151W, P10242”, -0.835 ± 0.078; with “Transcriptional activator Myb E151Y, P10242”, -1.12 ± 0.36.
With “Transcriptional activator Myb E168A, P10242”, the abundance fitness was -0.287 ± 0.093.
Substance “Transcriptional activator Myb E168C, P10242” gave an abundance fitness of -0.464 ± 0.11.
For “Transcriptional activator Myb E168D, P10242”, the abundance fitness is -0.133 ± 0.09.
With “Transcriptional activator Myb E168F, P10242” the figure was -0.574 ± 0.12.
With “Transcriptional activator Myb E168G, P10242” the figure was -0.668 ± 0.07; with “Transcriptional activator Myb E168H, P10242”, -0.548 ± 0.36; with “Transcriptional activator Myb E168K, P10242”, -0.279 ± 0.11.
With “Transcriptional activator Myb E168L, P10242” the figure was -0.419 ± 0.069; with “Transcriptional activator Myb E168M, P10242”, -0.533 ± 0.16; with “Transcriptional activator Myb E168N, P10242”, -0.492 ± 0.17.
Regarding “Transcriptional activator Myb E168P, P10242”, the abundance fitness was -0.833 ± 0.13.
The substance “Transcriptional activator Myb E168Q, P10242” displayed an abundance fitness of -0.182 ± 0.13.
Take “Transcriptional activator Myb E168R, P10242”: the abundance fitness was -0.541 ± 0.067.
The same measure for “Transcriptional activator Myb E168S, P10242”: -0.325 ± 0.084.
For the substance “Transcriptional activator Myb E168T, P10242”, the abundance fitness is -0.573 ± 0.32.
“Transcriptional activator Myb E168V, P10242”: the abundance fitness was -0.61 ± 0.077.
For the substance “Transcriptional activator Myb E168W, P10242”, the abundance fitness was -0.79 ± 0.1.
With “Transcriptional activator Myb E168Y, P10242” the figure was -0.657 ± 0.14; with “Transcriptional activator Myb E194A, P10242”, -0.055 ± 0.086; with “Transcriptional activator Myb E194C, P10242”, -0.226 ± 0.21.
In turn, “Transcriptional activator Myb E194D, P10242” gave an abundance fitness of -0.001 ± 0.16.
With “Transcriptional activator Myb E194F, P10242”, the abundance fitness is -0.168 ± 0.27.
“Transcriptional activator Myb E194G, P10242” gave an abundance fitness of -0.135 ± 0.068.
For the substance “Transcriptional activator Myb E194H, P10242”, the abundance fitness was -0.403 ± 0.49.
In the case of “Transcriptional activator Myb E194K, P10242”, the abundance fitness was -0.067 ± 0.13.
As to “Transcriptional activator Myb E194L, P10242”, the abundance fitness is -0.192 ± 0.088.
Substance “Transcriptional activator Myb E194M, P10242” gave an abundance fitness of -0.229 ± 0.26.
With “Transcriptional activator Myb E194N, P10242” the figure was -0.316 ± 0.36; with “Transcriptional activator Myb E194P, P10242”, 0.022 ± 0.21; with “Transcriptional activator Myb E194Q, P10242”, -0.125 ± 0.13.
As to “Transcriptional activator Myb E194R, P10242”, the abundance fitness is -0.102 ± 0.089.
Take “Transcriptional activator Myb E194S, P10242”: the abundance fitness was -0.161 ± 0.1.
“Transcriptional activator Myb E194T, P10242” came in with an abundance fitness of -0.001 ± 0.12.
Turning to “Transcriptional activator Myb E194V, P10242”, the abundance fitness is -0.037 ± 0.095.
“Transcriptional activator Myb E194W, P10242” registered an abundance fitness of -0.152 ± 0.13.
The same measure for “Transcriptional activator Myb E194Y, P10242”: -0.174 ± 0.24.
The same measure for “Transcriptional activator Myb E196A, P10242”: -0.069 ± 0.079.
On to “Transcriptional activator Myb E196C, P10242”, for which the abundance fitness was -0.13 ± 0.089.
Regarding “Transcriptional activator Myb E196D, P10242”, the abundance fitness was -0.056 ± 0.11.
Substance “Transcriptional activator Myb E196F, P10242” displayed an abundance fitness of -0.247 ± 0.15.
In turn, “Transcriptional activator Myb E196G, P10242” gave an abundance fitness of 0.007 ± 0.057.
The substance “Transcriptional activator Myb E196H, P10242” returned an abundance fitness of -0.196 ± 0.1.
“Transcriptional activator Myb E196I, P10242” gave an abundance fitness of -0.34 ± 0.12.
In turn, “Transcriptional activator Myb E196K, P10242” displayed an abundance fitness of -0.064 ± 0.1.
With “Transcriptional activator Myb E196L, P10242”, the abundance fitness was -0.03 ± 0.072.
For the substance “Transcriptional activator Myb E196M, P10242”, the abundance fitness was -0.084 ± 0.093.
With “Transcriptional activator Myb E196N, P10242” the figure was -0.022 ± 0.089; with “Transcriptional activator Myb E196P, P10242”, -0.114 ± 0.1.
“Transcriptional activator Myb E196Q, P10242” came in with an abundance fitness of -0.032 ± 0.12.
The same measure for “Transcriptional activator Myb E196R, P10242”: -0.092 ± 0.046.
With “Transcriptional activator Myb E196S, P10242”, the abundance fitness is -0.052 ± 0.064.
The same measure for “Transcriptional activator Myb E196T, P10242”: -0.044 ± 0.1; for “Transcriptional activator Myb E196V, P10242”: -0.121 ± 0.092; for “Transcriptional activator Myb E196W, P10242”: -0.151 ± 0.067.
Consider “Transcriptional activator Myb E196Y, P10242”, for which the abundance fitness was -0.306 ± 0.17.
On to “Transcriptional activator Myb E201A, P10242”, for which the abundance fitness is -0.094 ± 0.076.
With “Transcriptional activator Myb E201C, P10242” the figure was -0.314 ± 0.11; with “Transcriptional activator Myb E201F, P10242”, -0.521 ± 0.35; with “Transcriptional activator Myb E201G, P10242”, -0.076 ± 0.054.
The same measure for “Transcriptional activator Myb E201H, P10242”: -0.034 ± 0.15; for “Transcriptional activator Myb E201I, P10242”: -0.156 ± 0.2.
On to “Transcriptional activator Myb E201K, P10242”, for which the abundance fitness is -0.272 ± 0.16.
“Transcriptional activator Myb E201L, P10242” yielded an abundance fitness of -0.158 ± 0.097.
Substance “Transcriptional activator Myb E201M, P10242” gave an abundance fitness of -0.078 ± 0.24.
“Transcriptional activator Myb E201N, P10242” yielded an abundance fitness of 0.095 ± 0.14.
With “Transcriptional activator Myb E201P, P10242” the figure was -0.221 ± 0.13; with “Transcriptional activator Myb E201Q, P10242”, -0.061 ± 0.14; with “Transcriptional activator Myb E201R, P10242”, -0.12 ± 0.066.
As to “Transcriptional activator Myb E201S, P10242”, the abundance fitness was -0.105 ± 0.1.
For the substance “Transcriptional activator Myb E201V, P10242”, the abundance fitness was -0.183 ± 0.078.
On to “Transcriptional activator Myb E201W, P10242”, for which the abundance fitness was -0.204 ± 0.08.
The substance “Transcriptional activator Myb E201Y, P10242” yielded an abundance fitness of -0.377 ± 0.14.
In the case of “Transcriptional activator Myb G163A, P10242”, the abundance fitness is -0.329 ± 0.069.
In the case of “Transcriptional activator Myb G163C, P10242”, the abundance fitness was -0.468 ± 0.093.
For the substance “Transcriptional activator Myb G163D, P10242”, the abundance fitness was -0.356 ± 0.086.
“Transcriptional activator Myb G163E, P10242” returned an abundance fitness of -0.25 ± 0.088.
“Transcriptional activator Myb G163F, P10242” came in with an abundance fitness of -0.89 ± 0.16.

(Values after the Human Domainome abundance scans (Beltran et al. 2025).)
